Reference: article PMC12818389, “The Functional Epididymal Amyloid Cystatin‐Related Epididymal Spermatogenic (CRES) is a Component of the Mammalian Brain Extracellular Matrix” (Journal of Neuroscience Research, 2026)

Molecular target: the molecule itself
Assay: SDS-PAGE and Western blot of SDS-resistant high molecular weight forms; 5 ug recombinant CRES monomer alone, 50 mM sodium phosphate pH 8, room temperature 3 h with shaking and silicon beads, no ThT; 25,000 x g pellet in Laemmli buffer, Western blot for CRES

B1: Tag-less full-length mouse CRES C48A protein (recombinant) (natural protein, UniProt P32766 20-142, looked up)
chain: VGVDQSKNEVKAQNYFGSINISNANVKQAVWFAMKEYNKESEDKYVFLVDKILHAKLQITDRMEYQIDVQISRSNCKKPLNNTENCIPQKKPELEKKMSCSFLVGALPWNGEFNLLSKECKDV
notes: Cystatin-related epididymal spermatogenic protein (CRES, Cst8), mouse, called tag-less and full-length; C48A introduced to prevent inappropriate disulfide bond formation; a recombinant form without the signal peptide is possible (surmise); also called CRES monomer; recombinant CRES protein
B1: binds.
